# Assay results from the RNAGym collection of RNA variant scans (doi:10.7554/elife.80360).
# B1: HDV Ribozyme (parent)
# chain: GGCCGGCAUGGUCCCAGCCUCCUCGCUGGCGCCGGCUGGGCAACAUUCCGAGGGGACCGUCCCCUCGGUAAUGGCGAAUGGGACCCA
# Variants of: B1
# Test: self-cleavage, relative activity (ratio to wild type); higher = more cleavage; co-transcriptional
row,Variant,self-cleavage
1,GGCCGGCAUGGUCCCAGCCUCCUCGCUGGCGCCGGCUGGGCAACAUUCCGAGGGGACCGUGCCCUCGGUAUUGGCGAAUGGGACCCA [C61G A71U],0.997
2,GGCCGGCAUGGUCCCAGCCUCCUCGCUGGCGCCGGCUGGGCAACAUUCCGAGGGGACCGUGCCCUCGGUAAUGGCGAAUGGGACCCC [C61G A87C],0.983
3,GGCCGGCAUGGUCCCAGCCUCCUCGCUGGCGCCGGCUGGGCAACAUUCCGAGGGGACCGUGCGCUCGGUAAUGGCGAAUGGGACCCA [C61G C63G],0.481
4,GGCCGGCAUGGUCCCAGCCUCCUCGCUGGCGCCGGCUGGGCAACAUUCCGAGGGGACCGUGCCUUCGGUAAUGGCGAAUGGGACCCA [C61G C64U],0.755
5,GGCCGGCAUGGUCCCAGCCUCCUCGCUGGCGCCGGCUGGGCAACAUUCCGAGGGGACCGUGCCCUCGGUAAUGGCGAAUGGGAACCA [C61G C84A],0.708
6,GGCCGGCAUGGUCCCAGCCUCCUCGCUGGCGCCGGCUGGGCAACAUUCCGAGGGGACCGUGCCCUCGGUAAUGGCGAAUGGGACCGA [C61G C86G],0.941
7,GGCCGGCAUGGUCCCAGCCUCCUCGCUGGCGCCGGCUGGGCAACAUUCCGAGGGGACCGUGCCCUCGGUAAUGGCGAAUGGGACCUA [C61G C86U],0.772
8,GGCCGGCAUGGUCCCAGCCUCCUCGCUGGCGCCGGCUGGGCAACAUUCCGAGGGGACCGUGCCCUCAGUAAUGGCGAAUGGGACCCA [C61G G67A],0.743
9,GGCCGGCAUGGUCCCAGCCUCCUCGCUGGCGCCGGCUGGGCAACAUUCCGAGGGGACCGUGCCCUCGUUAAUGGCGAAUGGGACCCA [C61G G68U],0.964
10,GGCCGGCAUGGUCCCAGCCUCCUCGCUGGCGCCGGCUGGGCAACAUUCCGAGGGGACCGUGCCCUCGGUAAUGGCAAAUGGGACCCA [C61G G76A],0.906
11,GGCCGGCAUGGUCCCAGCCUCCUCGCUGGCGCCGGCUGGGCAACAUUCCGAGGGGACCGUGCCCUCGGUAAUGGCGAAUGAGACCCA [C61G G81A],0.219
12,GGCCGGCAUGGUCCCAGCCUCCUCGCUGGCGCCGGCUGGGCAACAUUCCGAGGGGACCGUGCCCUCGGUAAUGGCGAAUGCGACCCA [C61G G81C],0.262
13,GGCCGGCAUGGUCCCAGCCUCCUCGCUGGCGCCGGCUGGGCAACAUUCCGAGGGGACCGUGCCCUCGGUAAUGGCGAAUGGUACCCA [C61G G82U],0.271
14,GGCCGGCAUGGUCCCAGCCUCCUCGCUGGCGCCGGCUGGGCAACAUUCCGAGGGGACCGUGCCCACGGUAAUGGCGAAUGGGACCCA [C61G U65A],0.639
15,GGCCGGCAUGGUCCCAGCCUCCUCGCUGGCGCCGGCUGGGCAACAUUCCGAGGGGACCGUUCCCUCGGUAAUGGCGCAUGGGACCCA [C61U A77C],0.65
16,GGCCGGCAUGGUCCCAGCCUCCUCGCUGGCGCCGGCUGGGCAACAUUCCGAGGGGACCGUUCCCUCGGUAAUGGCGAGUGGGACCCA [C61U A78G],0.87

row,Variant,self-cleavage
1,GGCCGGCAUGGUCCCAGCCUCCUCGCUGGCGCCGGCUGGGCAACAUUCCGAGGGGACCGUUCCCUCGGUAAUGGCGAAUGGGCCCCA [C61U A83C],0.378
2,GGCCGGCAUGGUCCCAGCCUCCUCGCUGGCGCCGGCUGGGCAACAUUCCGAGGGGACCGUUCCCUCGGUAAUGGCGAAUGGGACCCC [C61U A87C],0.784
3,GGCCGGCAUGGUCCCAGCCUCCUCGCUGGCGCCGGCUGGGCAACAUUCCGAGGGGACCGUUCCCUCGGUAAUGGCGAAUGGGACCCG [C61U A87G],0.933
4,GGCCGGCAUGGUCCCAGCCUCCUCGCUGGCGCCGGCUGGGCAACAUUCCGAGGGGACCGUUCUCUCGGUAAUGGCGAAUGGGACCCA [C61U C63U],0.958
5,GGCCGGCAUGGUCCCAGCCUCCUCGCUGGCGCCGGCUGGGCAACAUUCCGAGGGGACCGUUCCUUCGGUAAUGGCGAAUGGGACCCA [C61U C64U],1.2
6,GGCCGGCAUGGUCCCAGCCUCCUCGCUGGCGCCGGCUGGGCAACAUUCCGAGGGGACCGUUCCCUUGGUAAUGGCGAAUGGGACCCA [C61U C66U],0.736
7,GGCCGGCAUGGUCCCAGCCUCCUCGCUGGCGCCGGCUGGGCAACAUUCCGAGGGGACCGUUCCCUCGGUAAUGGCGAAUGGGAACCA [C61U C84A],0.992
8,GGCCGGCAUGGUCCCAGCCUCCUCGCUGGCGCCGGCUGGGCAACAUUCCGAGGGGACCGUUCCCUCGGUAAUGGCGAAUGGGAGCCA [C61U C84G],0.589
9,GGCCGGCAUGGUCCCAGCCUCCUCGCUGGCGCCGGCUGGGCAACAUUCCGAGGGGACCGUUCCCUCGGUAAUGGCGAAUGGGACCAA [C61U C86A],0.812
10,GGCCGGCAUGGUCCCAGCCUCCUCGCUGGCGCCGGCUGGGCAACAUUCCGAGGGGACCGUUCCCUCUGUAAUGGCGAAUGGGACCCA [C61U G67U],0.842
11,GGCCGGCAUGGUCCCAGCCUCCUCGCUGGCGCCGGCUGGGCAACAUUCCGAGGGGACCGUUCCCUCGGUAAUAGCGAAUGGGACCCA [C61U G73A],0.547
12,GGCCGGCAUGGUCCCAGCCUCCUCGCUGGCGCCGGCUGGGCAACAUUCCGAGGGGACCGUUCCCUCGGUAAUGGCGAAUGAGACCCA [C61U G81A],0.44
13,GGCCGGCAUGGUCCCAGCCUCCUCGCUGGCGCCGGCUGGGCAACAUUCCGAGGGGACCGUUCCCUCGGUAAUGGCGAAUGGAACCCA [C61U G82A],0.325
14,GGCCGGCAUGGUCCCAGCCUCCUCGCUGGCGCCGGCUGGGCAACAUUCCGAGGGGACCGUUCCCCCGGUAAUGGCGAAUGGGACCCA [C61U U65C],0.914
15,GGCCGGCAUGGUCCCAGCCUCCUCGCUGGCGCCGGCUGGGCAACAUUCCGAGGGGACCGUUCCCUCGGGAAUGGCGAAUGGGACCCA [C61U U69G],0.864
16,GGCCGGCAUGGUCCCAGCCUCCUCGCUGGCGCCGGCUGGGCAACAUUCCGAGGGGACCGUUCCCUCGGUAAGGGCGAAUGGGACCCA [C61U U72G],0.567
